Measurements taken from patent US20070087000A1 (Pfizer, published 2007).

Tests used:
[1] = target: T1, Human GDF-8 (mature, recombinant dimer), biotinylated in the ELISAs (human, UniProt O14793 267-375, biotinylated in the direct and competition ELISAs (sites not given)); experiment: competition ELISA: soluble ActRIIB-Fc as competitor of biotinylated GDF-8 binding to immobilized ActRIIB-Fc
T1 construct: It was not biotinylated in the reporter assay; also called myostatin; growth and differentiation factor-8

[2] = target: T1, Human GDF-8 (mature, recombinant …); experiment: competition ELISA: RK35 inhibits binding of biotinylated GDF-8 to immobilized ActRIIB-Fc; competition ELISA, biotinylated GDF-8 to immobilized ActRIIB-Fc

Row | Binder | IC50 (read off the curve) [1] [pM] | IC50 [2] [nM]
1 | Recombinant ActRIIB-Fc chimera (human ActRIIB fused to the human IgG constant region, Fc) (Fc fusion, UniProt Q13705 19-137, looked up, extracellular domain; The same protein was used immobilised and as the soluble positive control; also called soluble ActRIIB; soluble ActRIIB-Fc receptor; not shown: human IgG1 Fc region) SGRGEAETRECIYYNANWELERTNQSGLERCEGEQDKRLHCYASWRNSSGTIELVKKGCWLDDFNCYDRQECVATEENPQVYFCCCEGNFCNERFTHLPEAGGPEVTYEPPPTAPTLLT | ~300 | –
2 | RK35 anti-GDF-8 mouse monoclonal antibody (antibody, V domains shown, Murine monoclonal antibody from a hybridoma (myostatin knockout BALB/c mice immunised with recombinant GDF-8 dimer); also called RK35 mAb; murine RK35) VH: EVQLVESGGGLVKPGGSLKLSCAASGFTFSSYAMSWVRQTPEKRLEWVATISSGGSYTSYPDSVKGRFTISRDNAKNTLYLQMSSLRSEDTAMYYCARQDYAMNYWGQGTSVTVSS VL: DIEMTQSHKFMSTSVGDRVSITCKASQDVSTAVAWYQQKPGQSPKLLLYSASYRYTGVPDRFTGSGSGTDFTFTISSVQAEDLAVYYCQQHYSTPWTFGGGTKLEIK | – | ~2.5
